Substrate in the data set: NC(=O)C1=CN([C@@H]2O[C@H](COP(=O)(O)OP(=O)(O)OC[C@H]3O[C@@H](n4cnc5c(N)ncnc54)[C@H](O)[C@@H]3O)[C@@H](O)[C@H]2O)C=CC1
Kind of data set: purified protein. The class given is biochemical, Pseudomonas aeruginosa. To be noted: varied 1,4-benzoquinone, 20 mM KPi, 200 mM NaCl, pH 7.0, 25 °C.

B1: NADH:quinone oxidoreductase (NQO), PA1024 (Pseudomonas aeruginosa PAO1) (protein)
chain: MGVFRTRFTETFGVEHPIMQGGMQWVGRAEMAAAVANAGGLATLSALTQPSPEALAAEIARCRELTDRPFGVNLTLLPTQKPVPYAEYRAAIIEAGIRVVETAGNDPGEHIAEFRRHGVKVIHKCTAVRHALKAERLGVDAVSIDGFECAGHPGEDDIPGLVLLPAAANRLRVPIIASGGFADGRGLVAALALGADAINMGTRFLATRECPIHPAVKAAIRAADERSTDLIMRSLRNTARVARNAISQEVLAIEARGGAGYADIAALVSGQRGRQVYQQGDTDLGIWSAGMVQGLIDDEPACAELLRDIVEQARQLVRQRLEGMLAGV
notes: full-length gene PA1024 in pET20b(+), expressed in E. coli Rosetta(DE3)pLysS, purified; EC 1.6.5.9
B1: the Km amounted to 70 ± 10 µM and the kcat stood at 27 ± 1 s⁻¹.

As a reminder, the Km is the concentration of substrate that gives half-maximal velocity. By kcat is commonly meant the maximal rate divided by the concentration of active sites.
